Laboratory results reported in patent US20210206811A1.

Biological target: retromer endogenous in HeLa cells (detected through its subunit Vps35) (UniProt Q96QK1)
Test: cell-based or functional assay

retromer endogenous in HeLa cells (detected through its subunit Vps35), sequence (O75436 whole entry): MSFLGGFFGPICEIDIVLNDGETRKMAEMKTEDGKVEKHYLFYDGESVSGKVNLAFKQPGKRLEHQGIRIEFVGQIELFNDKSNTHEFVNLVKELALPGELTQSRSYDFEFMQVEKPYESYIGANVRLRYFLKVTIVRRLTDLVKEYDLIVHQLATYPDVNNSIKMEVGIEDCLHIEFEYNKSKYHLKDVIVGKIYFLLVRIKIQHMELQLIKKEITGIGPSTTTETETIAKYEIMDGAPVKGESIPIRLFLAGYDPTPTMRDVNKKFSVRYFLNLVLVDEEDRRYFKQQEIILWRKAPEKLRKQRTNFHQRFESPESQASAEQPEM

## 3R mutant HPV16 pseudovirus (L2 with three arginines in place of RKRRKR) (from UniProt P03101 1-505)
  Vps35/L1 PLA signal: 75 % reduction
